Reference: PMC4837482, “The complex binding mode of the peptide hormone H2 relaxin to its receptor RXFP1” (Nature Communications, 2016)
Positions count from the first letter of the chain named.

Tests used:
Experiment in all cases: cAMP activity assay (pCRE β-galactosidase reporter), transfected HEK293T cells
Assay type in all cases: cell-based
[1] = target: T1, RXFP1 D51A (Homo sapiens, UniProt Q9HBX9, D51A/D73A); conditions: construct D51A, ±s.e.m.
T1 construct: cells expressing full-length RXFP1 and mutants; expressed in transfected cells; host or cells: HEK293T
T1 sequence (Q9HBX9 23-757 D51A/D73A limits assumed): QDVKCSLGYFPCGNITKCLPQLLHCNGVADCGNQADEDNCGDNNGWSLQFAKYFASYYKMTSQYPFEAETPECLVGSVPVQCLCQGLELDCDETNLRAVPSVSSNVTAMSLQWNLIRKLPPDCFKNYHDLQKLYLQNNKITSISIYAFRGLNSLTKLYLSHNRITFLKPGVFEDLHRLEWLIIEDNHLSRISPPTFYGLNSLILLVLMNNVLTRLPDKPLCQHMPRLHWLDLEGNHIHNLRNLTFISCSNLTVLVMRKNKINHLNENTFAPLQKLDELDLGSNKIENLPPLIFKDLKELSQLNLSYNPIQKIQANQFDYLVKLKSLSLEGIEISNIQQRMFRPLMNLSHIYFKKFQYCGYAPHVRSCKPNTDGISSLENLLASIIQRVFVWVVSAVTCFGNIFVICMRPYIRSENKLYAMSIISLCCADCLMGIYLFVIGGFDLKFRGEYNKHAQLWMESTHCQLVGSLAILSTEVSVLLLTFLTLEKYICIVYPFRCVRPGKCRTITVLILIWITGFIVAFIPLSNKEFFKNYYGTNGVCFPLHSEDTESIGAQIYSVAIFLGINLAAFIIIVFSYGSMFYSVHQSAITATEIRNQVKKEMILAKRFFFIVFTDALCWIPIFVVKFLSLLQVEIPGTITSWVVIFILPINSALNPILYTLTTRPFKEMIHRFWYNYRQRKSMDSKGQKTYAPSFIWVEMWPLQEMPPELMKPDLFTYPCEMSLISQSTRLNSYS
How it was run: (§1)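 Relaxin-stimulated cells go through overnight storage at −80 °C, two 10-min lysis steps at pH 8.0 with shaking, and chlorophenol red-β-D-galactopyranoside development. Output at 570 nm is scaled against the 5 μM Forskolin maximum.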

[2] = target: T2, RXFP1 F50A^ins (Homo sapiens, UniProt Q9HBX9, INS72A); conditions: construct F50A^ins, ±s.e.m.
T2 construct: transiently transfected human embryonic kidney (HEK) 293T cells expressing full-length RXFP1 and mutants; expressed in transfected cells; host or cells: HEK293T
T2 sequence (Q9HBX9 with tags, fused parts or gaps INS72A limits assumed): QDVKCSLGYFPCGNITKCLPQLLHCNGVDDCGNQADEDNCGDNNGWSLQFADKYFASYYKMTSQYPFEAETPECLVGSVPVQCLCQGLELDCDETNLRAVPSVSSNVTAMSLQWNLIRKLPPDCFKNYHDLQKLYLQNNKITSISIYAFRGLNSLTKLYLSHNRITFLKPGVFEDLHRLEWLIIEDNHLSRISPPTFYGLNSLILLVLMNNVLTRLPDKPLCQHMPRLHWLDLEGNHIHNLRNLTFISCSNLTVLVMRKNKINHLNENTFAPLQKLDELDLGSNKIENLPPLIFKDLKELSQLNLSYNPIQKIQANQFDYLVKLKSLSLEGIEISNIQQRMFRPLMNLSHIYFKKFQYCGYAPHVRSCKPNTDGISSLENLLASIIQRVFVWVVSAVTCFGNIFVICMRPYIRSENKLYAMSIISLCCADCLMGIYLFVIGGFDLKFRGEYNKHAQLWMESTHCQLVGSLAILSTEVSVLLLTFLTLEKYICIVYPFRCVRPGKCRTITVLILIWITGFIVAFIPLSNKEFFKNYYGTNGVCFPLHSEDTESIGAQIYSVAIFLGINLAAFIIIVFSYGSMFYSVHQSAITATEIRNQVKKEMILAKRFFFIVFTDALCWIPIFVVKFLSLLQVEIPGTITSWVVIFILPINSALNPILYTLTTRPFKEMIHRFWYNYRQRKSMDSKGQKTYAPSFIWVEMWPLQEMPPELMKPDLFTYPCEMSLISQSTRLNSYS
How it was run: as §1

[3] = target: T3, RXFP1 M60A (Homo sapiens, UniProt Q9HBX9, M82A); conditions: construct M60A, ±s.e.m.
T3 construct: cells expressing full-length RXFP1 and mutants; expressed in transfected cells; host or cells: HEK293T
T3 sequence (Q9HBX9 23-757 M82A limits assumed): T1 sequence (Q9HBX9 23-757 D51A/D73A limits assumed) with A29D, A51D, M60A
How it was run: as §1

[4] = percentage of maximum response to 5 μM Forskolin

## H2 relaxin: two-chain 6-kDa peptide hormone structurally related to insulin; recombinant human gene-2 H2 relaxin provided by Corthera
[1]; cAMP reporter
  H2 relaxin pEC50: 11.01±0.56 (3)
[1]; [4]
  H2 relaxin Emax: 96.5±4.0 (3) %
[2]; cAMP reporter
  H2 relaxin pEC50: 9.41±0.13 (3)
[2]; [4]
  H2 relaxin Emax: 93.62±5.34 (3) %
[3]; cAMP reporter
  H2 relaxin pEC50: 11.20±0.03 (4)
[3]; [4]
  H2 relaxin Emax: 118.2±6.51 (4) %
